Key:
human β NGF [1] = target: T1, human β NGF (human, UniProt P01138 122-241, biotinylated in the TrkA inhibition ELISA (sites not given)); experiment: TrkA inhibition ELISA; biotin-hNGF bound to rat TrkA/Fc; supernatant 1-fold
T1 construct: Bought (R&D Systems 256-GF/CF); also called Human NGF; biotinylated human NGF
Protocol: (§1) The plates were washed three times with PBS/Tween. The plates were blocked with 200 μl/well of 2% milk in PBS for 1 hour at room temperature. The plates were washed three times as above. Rat TrkA/Fc chimera (R&D Systems, catalog #1056-TK) was added at 1 μg/ml (50 μl/well) in PBS/0.1% BSA and then incubated for 1 hour at room temperature. Biotinylated human NGF was titered and pre-incubated with anti-NGF antibody supernatants diluted 1-fold, 5-fold, and 25-fold, or purified anti-NGF mAbs diluted to 0.08, 0.4, 2, or 10 μg/ml for 1 hour at room temperature on a plate shaker. The negative control was unrelated conditioned supernatant. The positive control was sera from a mouse immunized with NGF. The plates were washed and then 50 μl of each biotinylated NGF/Ab mix was added to the appropriate wells. The plates were incubated for 1 hour at room temperature. The plates were washed. […] The plates were incubated for 30 min at room temperature. The plates were washed. 50 μl of TMB (Invitrogen, cat #00-2023) was added and the reaction was stopped using 2N H₂SO₄ (VWR, cat # BDH3500-1). The absorbance at 450 nm was read on a Spectromax 2E plate reader (Molecular Devices), and the absorbance readings are shown in Table 5 The numerical value indicates binding of biotinylated human β NGF to rat TrkA/Fc chimera.

human β NGF [2] = target: T1, human β NGF; experiment: cell-based or functional assay
human β NGF [3] = target: T1, human β NGF; experiment: TrkA inhibition ELISA; biotin-hNGF bound to rat TrkA/Fc; supernatant 25-fold
Protocol: as §1

human β NGF [4] = target: T1, human β NGF; experiment: TrkA inhibition ELISA; biotin-hNGF bound to rat TrkA/Fc; supernatant 5-fold
Protocol: as §1

recombinant canine β NGF [5] = target: T2, recombinant canine β NGF (canine, UniProt Q29074 110-229 (pig entry)); experiment: cell-based or functional assay
T2 chain: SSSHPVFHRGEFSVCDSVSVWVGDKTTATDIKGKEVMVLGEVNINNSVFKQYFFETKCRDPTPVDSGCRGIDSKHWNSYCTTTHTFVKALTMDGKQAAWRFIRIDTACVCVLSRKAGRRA

recombinant canine β NGF [6] = target: T2, recombinant canine β NGF; experiment: SPR (Biacore T100), antibody captured on goat anti-canine IgG, canine NGF injected
Protocol: Purified mouse/canine chimeric antibodies and caninized antibodies were analyzed for affinity to canine NGF using a Biacore T100 instrument. Goat anti Canine IgG (Southern Biotech) was immobilized at 5000-10000 RU on a CM5 chip using an amine coupling procedure according to the manufacturer's instructions (Biacore). […] The association rate was monitored for 5 min and the dissociation rate was monitored for 10-20 min. The chip surface was regenerated using 50-75 ul 10 mM glycine pH 1.5 at a flow rate of 50-100 ul/min. Data was analyzed using Biaevaluation T100 software version 2.0.2, software, GE Healthcare Life Sciences (Piscataway, N.J.). Overall affinity parameters established for mouse/canine chimeric antibodies is summarized in Table 22 and for caninized antibodies in Table 23. […] The overall KDs of the mouse/canine anti-NGF mAbs range from about 1300 pM to 1.6 pM. […] The overall KDs of the caninized anti-NGF mAbs range from about 42 pM to 1.2 pM.

[7] = target: recombinant canine β NGF (canine); experiment: cell-based or functional assay
biotinylated human β NGF [8] = target: T3, biotinylated human β NGF (human, UniProt P01138 122-241, biotinylated); experiment: capture ELISA; supernatant 25-fold
T3 construct: also called Biotinylated Human NGF; human NGF
T3 sequence (P01138 122-241 limits assumed): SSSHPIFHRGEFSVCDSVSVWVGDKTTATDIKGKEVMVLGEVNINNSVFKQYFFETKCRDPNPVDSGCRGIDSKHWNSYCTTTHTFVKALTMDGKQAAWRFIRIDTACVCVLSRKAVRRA
Protocol: (§2) The plates were washed three times with wash buffer. The plates were blocked with 200 μl of 2% milk and incubated for 1 hour at room temperature. The plates were washed as above. […] The positive control was crude sera (diluted 1:500 with PBS) isolated from a β NGF immunized mouse and the negative control was hybridoma supernatant derived from a mouse immunized with an antigen other than NGF. The plates were washed and then 50 μl of biotinylated human or rat β NGF at 50 ng/ml was added and incubated for 1 hour at room temperature. The plates were washed. […] The plates were incubated for 30 minutes at room temperature. The plates were washed and then TMB substrate (Invitrogen, catalog #00-2023) was added. The reaction was stopped using 2N H₂SO₄ (VWR, catalog # BDH3500-1). The absorbance at 450 nm was read on a Spectromax 2E plate reader (Molecular Devices); these absorbance readings are shown in Tables 1 and 2. The numerical value indicates binding of mouse anti-NGF antibodies to biotinylated human or rat β NGF.

biotinylated rat β NGF [9] = target: T4, biotinylated rat β NGF (rat, UniProt P25427 122-241, limits assumed, biotinylated); experiment: capture ELISA; supernatant 25-fold
T4 construct: also called Biotinylated Rat NGF; rat NGF
T4 sequence (P25427 122-241 limits assumed): as the sequence (P01138 122-241 limits assumed) above, with S3T, I6V, R9M, M37T, D60A, D65E, M92T, G94D, V117A, A120G counted along it
Protocol: as §2

recombinant canine β NGF [10] = target: T5, recombinant canine β NGF (canine, UniProt Q29074 110-229 (pig entry)); experiment: cell-based or functional assay
T5 chain: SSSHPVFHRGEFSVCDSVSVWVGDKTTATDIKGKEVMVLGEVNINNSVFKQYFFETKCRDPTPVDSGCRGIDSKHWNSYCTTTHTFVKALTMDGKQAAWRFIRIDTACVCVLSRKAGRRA

biotinylated human β NGF [11] = target: T3, biotinylated human β NGF; experiment: capture ELISA; supernatant 5-fold
Protocol: as §2

biotinylated rat β NGF [12] = target: T4, biotinylated rat β NGF; experiment: capture ELISA; supernatant 5-fold
Protocol: as §2

biotinylated human β NGF [13] = target: T3, biotinylated human β NGF; experiment: capture ELISA; supernatant 625-fold
Protocol: as §2

biotinylated rat β NGF [14] = target: T4, biotinylated rat β NGF; experiment: capture ELISA; supernatant 625-fold
Protocol: as §2

biotinylated human β NGF [15] = target: T3, biotinylated human β NGF; experiment: capture ELISA; supernatant 125-fold
Protocol: as §2

biotinylated rat β NGF [16] = target: T4, biotinylated rat β NGF; experiment: capture ELISA; supernatant 125-fold
Protocol: as §2

T1 sequence (P01138 122-241 limits assumed): as the sequence (P01138 122-241 limits assumed) above

Binder | absorbance at 450 nm (human β NGF [1]) [OD450] | SureFire pERK, % of maximum signal; supernatant 1000-fold (human β NGF [2]) [%] | absorbance at 450 nm (human β NGF [3]) [OD450] | absorbance at 450 nm (human β NGF [4]) [OD450] | IC50, canine NGF-induced TF-1 cell proliferation (70 pM canine NGF) (recombinant canine β NGF [5]) [nM] | Kd (recombinant canine β NGF [6]) [nM] | koff (recombinant canine β NGF [6]) [s⁻¹] | TF-1 cell proliferation potency (70 pM canine NGF) [7] [pM] | absorbance at 450 nm (biotinylated human β NGF [8]) | absorbance at 450 nm (biotinylated rat β NGF [9]) | PathHunter IC50 (441 pM canine NGF) (recombinant canine β NGF [10]) [nM] | SureFire cellular pERK IC50 (128 pM canine NGF) (recombinant canine β NGF [10]) [nM] | absorbance at 450 nm (biotinylated human β NGF [11]) | absorbance at 450 nm (biotinylated rat β NGF [12]) | absorbance at 450 nm (biotinylated human β NGF [13]) | absorbance at 450 nm (biotinylated rat β NGF [14]) | absorbance at 450 nm (biotinylated human β NGF [15]) | absorbance at 450 nm (biotinylated rat β NGF [16])
2B12 hybridoma supernatant (antibody, mouse IgG2b, V domains shown, Tested as supernatant of the hybridoma before subcloning; mouse IgG2b kappa; also called ML129-2B12.5G9) VH: QVQLQQPGAELVKPGASVKLSCKASGYTFTNYWMHWVKQRPGQGLEWIGRIDPYGGGTKHNEKFKRKATVTADKSSSTAYILLSSLTSEDSAVYYCTRSGYDYYFDVWGTGTTVTVSS VL: DIQMTQSPASLSASVGETVTVTCRASENIYSFLAWHQQKQGKSPQLLVYNANTLAEGVPSRFSGSGSGTQFSLKINSLQPEDFGSYYCQHHFGTPFTFGSGTKLEIKR | 0.065 | 0 | 0.095 | 0.07 |  |  |  |  |  |  |  |  |  |  |  |  |  | 
Mu72 Canine IgG1/k Chimera (antibody, V domains shown, also called PR-1290646; lot 1785614) VH: EVHLVESGGGLVKPGGFLILSCAASGFTFSDYYMFWIRQTPGKRLEWVATISDGGSYTYYTDNVKGRFTISRDNVKNNLYLQMSHLKSADTAMYYCARDWSDSEGFAYWGQGTLVTVSA VL: DVLMTQTPLSLPVSLGDQASISCRSSQSIVQSNGNTYLEWYLQKPGQSPKLLIYKVSNRFSGVPDRFSGSGSGTDFTLKISRVEAEDLGVYYCFQGSHVPFTFGSGTKLEIKR |  |  |  |  | 0.041 | 1.3 | 0.0038 | < 50 |  |  |  |  |  |  |  |  |  | 
PR-1254972 (antibody, mouse IgG2b, V domains shown, also called 20B10; ML129-20B10.3F4) VH: EVHLVESGGGLVKPGGFLILSCAASGFTFSDYYMFWIRQTPGKRLEWVATISDGGSYTYYTDNVKGRFTISRDNVKNNLYLQMSHLKSADTAMYYCARDWSDSEGFAYWGQGTLVTVSA VL: DVLMTQTPLSLPVSLGDQASISCRSSQSIVQSNGNTYLEWYLQKPGQSPKLLIYKVSNRFSGVPDRFSGSGSGTDFTLKISRVEAEDLGVYYCFQGSHVPFTFGSGTKLEIKR |  |  |  |  |  |  |  |  | 0.997 | 0.431 | < 1 | < 1 | 1.1 | 0.472 | 0.143 | 0.108 | 0.576 | 0.261
PR-1254980 (antibody, mouse IgG1, V domains shown, also called 23F1; ML129-23F1.4G3) VH: EVQLQQSGAELVKPGASVKLSCTASGFNIKDTYIYWVKQRPEQGLEWIGRIDPANGNTIYASKFQGKATITADTSSNTAYMQLSSLTSGDTAVYYCAGYGYYAYWGQGTTLTVSS VL: DVVLTQTPLSLPVNIGDQASISCKSTKSLLNGDGFTYLDWYLQKPGQSPQLLIYLVSNRFSGVPDRFSGSGSGTDFTLKISRVEAEDLGVYYCFESNYLFTFGSGTKLEMKR |  |  |  |  |  |  |  |  | 1.17 | 0.767 | < 1 | < 1 | 1.14 | 0.764 | 0.696 | 0.528 | 0.979 | 0.737
PR-1254977 (antibody, mouse IgG1, V domains shown, also called 21D4; ML129-21D4.4A11) VH: EVQLQQSGAELVKPGASVKLSCTASGFNIKDTYIYWVKQRPEQGLEWIGRIDPANGNTIYASKFQGKASITADTSSNTAYMQLSSLTSGDTAVYYCAGYGYYAYWGQGTTLTVSS VL: DVVLTQTPLSLPVNIGDQASISCKSTKSLLNGDGFTYLDWYLQKPGQSPQLLIYLVSNRFSGVPDRFSGSGSGTDFTLKISRVEAEDLGVYYCFESNYLFTFGSGTKLEMKR |  |  |  |  |  |  |  |  | 1.04 | 0.76 | < 1 | < 1 | 1.15 | 0.787 | 0.543 | 0.453 | 0.899 | 0.671
